Ends that are not written are not given here.
What was measured:
FDP tendons = assay: In vitro tissue culture tendon healing model, gel patch with BMSC and/or Substance P: biomechanical testing; type: cell-based, dogs; conditions: zone III tendon groups, Substance P 10^−9, 2 weeks and 4 weeks
Procedure: Mixed-breed dogs being euthanized for other IACUC approved studies were used to harvest bone marrow from which bone marrow stromal cells (BMSCs) were cultured. The FDP tendons were harvested from dogs also being euthanized for other IACUC approved studies and these tendons were transected at similar levels, repaired with a single suture and incubated in tissue culture medium. Six repair groups was studied: (1) tendons ends opposed with two single loop sutures of 6/0 nylon (Ethicon, Somerville N.J.); (2) tendons repaired as in group 1 with the interposition of a collagen gel scaffold to the repair site (positive control group); (3) tendons repaired as in group 1 with the interposition of a BMSC-seeded collagen gel scaffold to the repair site; (4) tendons repaired as in group 1, with the interposition of a BMSC-seeded collagen gel scaffold to the repair site and addition of Substance P; (5) tendons repaired as in group 1, with the interposition of a BMSC-seeded collagen gel scaffold to the repair site and addition of GDF-5; and (6) tendons repaired as in group 1, with the interposition of a BMSC-seeded collagen gel scaffold to the repair site and addition of SP and GDF-5. […]
Confluent plates of BMSC were washed twice with sterile PBS and then trypsinized. The cells were counted with a hemocytometer and centrifuged to remove the media, forming a cell pellet with a known number of cells. […]

BMSCs [1] = assay: MTT cell proliferation assay of BMSCs with rhGDF-5; type: cell-based, dogs; conditions: day 10 of cell culture, 100 ng/mL rhGDF-5
Procedure: (§1) Immediately after euthanasia, 8.0 mL of bone marrow was aspirated from each tibia using a 15 mL syringe containing 2.0 mL of heparin solution. Heparin was removed and the bone marrow cells from one dog were divided into three 100-mm dishes in 10 mL of standard medium, which consists of minimal essential medium (MEM) with Earle's salts (Gibco, Grand Island, N.Y.), 10% fetal calf serum and 1% antibiotics (Antibiotic-Antimycotic, Gibco). The bone marrow cells were incubated at 37° C. with 5% CO2 and 95% air at 100% humidity. After 3 days, the medium containing floating cells was removed and new medium was added to the remaining adherent cells. These adherent cells were considered to be BMSCs. The medium was changed every 3 days. After the BMSCs formed colonies, they were treated with EDTA-trypsin to produce a cell suspension and centrifuged at 1500 rpm for 5 minutes to remove the EDTA-trypsin solution. The concentrated cell suspension was gathered in one tube and seeded in new dishes. Recombinant human GDF-5 (MBL, Woburn, Mass.) was added to the culture medium at a concentration of 100 ng/mL and culture continued for and additional 10 days.
Quantification of cell proliferation and viability was measured using Cell Proliferation Kit I (Roche, Basel, Switzerland). […] The absorbance was measured using Spectra Max Plus (Molecular Devises, Sunnyvale, Calif.). […]

BMSCs [2] = assay: Quantitative RT-PCR of BMSCs cultured with GDF-5; type: cell-based, canine
Procedure: as §1
Total RNA was extracted from culture cells using RNeasy Micro kit (Qiagen, Valencia, Calif.), according to the manufacturer's recommendations. The RNA concentration was determined using a NanoDrop (Thermo scientific, Waltham, Mass.). RNA was reverse transcribed into single-stranded cDNA with an anchored-oligo(dT) primer using Transcriptor First Strand cDNA Synthesis Kit (Roche). The reverse transcriptase was inactivated by heating to 85° C. for 5 minutes. The expression of tenomodulin (a marker of tenocyte differentiation), collagen type I and collagen type III was quantified with LightCycler 480 SYBR Green I Master kit (Roche) in a LightCycler 480 instrument (Roche). HPRT served as the reference gene. Five samples were measured in each group.

Question: For “Substance P: neuropeptide, substance P (Sigma) (RPKPQQFFGLM-NH2; ends and bridges not checked; UniProt P20366 58-68, looked up)”, which “maximum force compared with cell only control” value (FDP tendons) is on record?
Answer: significantly higher

B1: GDF-5: Recombinant human GDF-5 (MBL, Woburn, Mass.) (protein, UniProt P43026 382-501, looked up)
Growth/differentiation factor …: APLATRQGKRPSKNLKARCSRKALHVNFKDMGWDDWIIAPLEYEAFHCEGLCEFPLRSHLEPTNHAVIQTLMNSMDPESTPPTCCVPTRLSPISILFIDSANNVVYKQYEDMVVESCGCR
Question: With B1 as the molecule, how does the “proliferation of BMSCs (MTT) compared with BMSCs without GDF5 stimulation” value (BMSCs [1]) read?
Answer: significantly increased

Question: And the “collagen type I mRNA expression, treated vs untreated cells” value (BMSCs [2]; 100 ng/mL)?
Answer: no significant difference

Question: What about the “collagen type III mRNA expression, treated vs untreated cells” value (BMSCs [2]; 100 ng/mL) of the same molecule?
Answer: no significant difference

Question: What about the “expression of tenomodulin mRNA compared with untreated cells” value (BMSCs [2]; day 10, 100 ng/mL) of the same molecule?
Answer: increased
